Entries after “also recorded” stand apart in the source; their conditions may differ.
Key:
[1] = biological target: T1, HLA-A2 molecule (Homo sapiens, UniProt P04439, D140Y/D185E/D98H/E176V/E277Q/G131W/G231S/I119V/I121R/I166T/I218V/L300P/L318F/N151K/N90K/P208A/P217A/Q86G/Q94H/R138H/R169H/T345S); assay: T2 binding assay (HLA-A2 up-regulation on TAP-deficient T2 cells); settings: for binding affinity for the HLA-A2 molecule (in words): T2 binding assay; for FI0.5: peptide concentration that increases HLA-A2.1 expression by 50% over no peptide
T1 construct: The T2 cell line is deficient for TAP1 and TAP2 transporter proteins and expresses low levels of HLA-A2; endogenous in cells; host or cells: T2 cell line (TAP1/TAP2-deficient)
Method: FIG. 1 is a graph showing binding affinity of POTE peptides to HLA-A2 molecules. Peptides were dissolved in DMSO in double-distilled water and different concentrations of peptides were added into the culture of TAP-deficient T2 cells. After overnight culture of the cells in medium supplemented with β2-microglobulin, cells were stained with anti-HLA-A2. HLA-A2 expression was quantified as fluorescence index (FI) according to the following formula: FI=[(mean fluorescence intensity with peptide−mean fluorescence intensity without peptide)/mean fluorescence intensity without peptide]. Background fluorescence without BB7.2 was subtracted for each individual value. To compare the different peptides, FI0.5 (the peptide concentration that increases HLA-A2.1 expression by 50% over no peptide control background) was calculated from the titration curve for each peptide.
FIGS. 2A-2C are graphs showing binding affinity of substituted POTE peptides to HLA-A2 molecules. Shown are binding affinities of the substituted POTE 252 peptides (FIG. 2A), the substituted POTE 553 peptides (FIG. 2B) and the substituted POTE 323 peptides (FIG. 2C) to HLA-A2 molecules. Different concentrations of peptides were added into the culture of TAP-deficient T2 cells. After overnight culture of the cells in medium supplemented with β2-microglobulin, cells were stained with anti-HLA-A2 antibody.
Peptide binding capacity to the HLA-A2 molecule was measured by using the T2 cell line according to a protocol described previously (Peters et al., Bioinformatics 19(14):1765-1772, 2003). T2 cells (3×10^5 cells/well) were incubated overnight in 96-well plates with culture medium (1:1 mixture of RPMI 1640/Eagle-Hank's amino acid containing 2.5% fetal bovine serum, 100 U/ml penicillin, and 100 μg/ml streptomycin) with 10 μg/ml β2-microglobulin (Sigma) and different titrated concentrations of peptides (starting from 100 μM with 2-fold serial dilution) as shown in the figures to determine the concentration giving a 50% increasing in binding. Cells were washed once with cold HBSS containing 0.1% BSA and incubated for 30 minutes at 4° C. with anti-HLA-A2.1 BB7.2 monoclonal antibody (1:40 dilution from hybridoma supernatant). After washing, cells were stained with FITC-labeled goat anti-mouse immunoglobulin (BD, San Jose, Calif.), and the level of HLA expression was measured by flow cytometry. HLA-A2 expression was quantified as fluorescence index (FI) according to the following formula: FI=[(geometric mean fluorescence intensity with peptide-geometric mean fluorescence intensity without peptide)/geometric mean fluorescence intensity without peptide]. Background fluorescence without BB7.2 was subtracted for each individual value. To compare the different peptides, FI0.5, the peptide concentration that increases HLA-A2.1 expression by 50% over no peptide control background, was calculated from the titration curve for each peptide.

[2] = test system: IFN-γ secreting spleen cells; assay: ex vivo IFN-γ ELISPOT assay on splenocytes of peptide-immunized AAD mice; type: in vivo; settings: for IFN-γ response (ELISPOT spots) on stimulation with the immunizing peptide: AAD mice immunized s.c., splenocytes pooled from three mice two weeks after boost
Method: (§1) FIGS. 3A and 3B are graphs showing immunogenicity of the wild type and enhanced POTE 252 epitopes in AAD mice. AAD mice were immunized subcutaneously with a mixture of peptide and cytokines in adjuvant as described in Example 1. (FIG. 3A) Two weeks after the second boost, splenocytes pooled from three mice were restimulated with splenocytes of naïve AAD mice pulsed with 1.0 μM of each peptide at different effector to target (E/T) ratios. Cells were cultured in anti-mouse IFN-γ antibody coated ELISPOT™ plates. After overnight culture, biotinylated anti-mouse IFN-γ antibodies were added to each well. ELISPOT™ substrates were added to develop the color and spots were counted by an ELISPOT™ reader (AID ELISPOT™ reader system). Figures show numbers of spots per million cells. (FIG. 3B) CTL cross-reactivity on each peptide. Two weeks after the second boost, pooled spleen cells from three mice were restimulated with irradiated splenocytes pulsed with 1.0 μM of peptide for 7 days. In a 4-hour ^51Cr release assay, CIR.AAD cells were pulsed with 1.0 μM of peptide and labeled with ^51Cr. After washing three times, target cells were mixed with different numbers of effector cells and then cultured for 4 hours before harvesting.
(§2) FIGS. 4A-4D are graphs showing immunogenicity of the wild type and enhanced POTE 553 epitopes in AAD mice. AAD mice were immunized subcutaneously with a mixture of peptide and cytokines in adjuvant. (FIGS. 4A and 4B) Two weeks after the second boost, splenocytes pooled from three mice were restimulated with splenocytes of naïve AAD mice pulsed with 10 nM to 1.0 μM of each peptide at different E/T ratios. Cells were cultured in anti-mouse IFN-γ antibody coated ELISPOT™ plates. After overnight culture, biotinylated anti-mouse IFN-γ antibodies were added to each well. ELISPOT™ substrates were added to develop color and spots were counted by an ELISPOT™ reader (AID ELISPOT™ reader system). Figures show numbers of spots per million cells. (FIGS. 4C and 4D) CTL cross-reactivity on each peptide. Two weeks after the second boost, pooled spleen cells from three mice were restimulated with irradiated splenocytes pulsed with 1.0 μM of peptide for 7 days. In a 4-hour ^51Cr release assay, CIR.AAD cells were pulsed with 1.0 μM of peptide and labeled with ^51Cr. After washing three times, target cells were mixed with different numbers of effector cells and then cultured for 4 hours before harvesting.
(§3) FIGS. 5A and 5B are graphs showing immunogenicity of the POTE 272 epitope in AAD mice. AAD mice were immunized subcutaneously with a mixture of peptide and cytokines in adjuvant. (FIG. 5A) Two weeks after the second boost, splenocytes pooled from three mice were restimulated with splenocytes of naïve AAD mice pulsed with 1.0 μM POTE 272 peptide at different E/T ratios. Cells were cultured in anti-mouse IFN-γ antibody coated ELISPOT™ plates. After overnight culture, biotinylated anti-mouse IFN-γ antibodies were added in each well. ELISPOT™ substrates were added to develop color and spots were counted by an ELISPOT™ reader (AID ELISPOT™ reader system). Figures show numbers of spots per million cells. (FIG. 5B) CTL reactivity on POTE 272 peptide. Two weeks after the second boost, pooled spleen cells from three mice were restimulated with irradiated splenocytes pulsed with 1.0 μM POTE 272 peptide for 7 days. In a 4-hour ^51Cr release assay, CIR.AAD cells were pulsed with 1.0 μM POTE 272 peptide and labeled with ^51Cr. After washing three times, target cells were mixed with different numbers of effector cells and then cultured for 4 hours before harvesting.
(§4) FIGS. 6A and 6B are graphs showing immunogenicity of the wild type and enhanced POTE 323 epitopes in AAD mice. AAD mice were immunized subcutaneously with a mixture of peptide and cytokines in adjuvant. (FIG. 6A) Two weeks after the second boost, splenocytes pooled from three mice were restimulated with splenocytes of naïve AAD mice pulsed with 1.0 μM of each peptide at different E/T ratios. […]

[3] = test system: C1R.AAD cells pulsed with peptide; assay: 4-hour 51Cr release CTL assay after one week in vitro stimulation; type: cell-based, human; settings: CTLs from immunized AAD mice, restimulated 7 days with 1.0 μM peptide; targets pulsed with 1.0 μM peptide
Method: as §1, §2, §3, §4

[4] = wild-type peptides, Table 1 / FIG. 1
[5] = substituted peptides and their wild types, Table 2 / FIGS. 2A-2C

Row | Sequence | FI0.5 [1, 5] [µM] | IFN-γ response (ELISPOT spots) on stimulation with the immunizing peptide [2] | CTL lysis of peptide-pulsed target cells [3] | further results
1 | GLTPLLLGV [POTE 272-280, unmodified 9-mer peptide, residues 272-280 of human POTE] | – | induced significant IFN-γ responses | lysed target cells pulsed with POTE 272 | binding affinity for the HLA-A2 molecule (in words) [1]: strongest HLA-A2 binding affinity; FI0.5 [1, 4]: ~0.9 µM
2 | KILEEIASV [POTE-553-7A, modified POTE 553 peptide, alanine at position 7] | 0.2 | – | – | –
3 | KILEEIESV [POTE 553-561, unmodified 9-mer peptide, residues 553-561 of human POTE] | 2.6 | did not induce any significant IFN-γ responses | not any significant detectable target cell lysis | binding affinity for the HLA-A2 molecule (in words) [1]: strongest HLA-A2 binding affinity; also recorded: intermediate binders; FI0.5 [1, 4]: ~5.6 µM
4 | KLAAKALLL [POTE 252-3A, modified POTE 252 peptide, alanine at position 3] | 16.9 | – | – | –
5 | KLFAKALLL [POTE 252-3F, modified POTE 252 peptide, phenylalanine at position 3] | 1.5 | – | – | –
6 | LLAEQNVDV [POTE 323-3A, modified POTE 323 peptide, alanine at position 3] | 0.4 | – | – | –
7 | LLLEQNADV [POTE 323-7A, modified POTE 323 peptide, alanine at position 7] | 2.78 | – | – | –
8 | VLMLLEHGA [POTE 222-230] | – | – | – | binding affinity for the HLA-A2 molecule (in words) [1]: weak binder; FI0.5 [1, 4]: approximately 42.4 μM
9 | YLLEQNVDV [POTE 323-1Y, modified POTE 323 peptide, tyrosine at position 1] | 0.25 | – | – | –
10 | YLMAKALLL [POTE 252-1Y, modified POTE 252 peptide, tyrosine at position 1] | 0.9 | no significant IFN-γ responses were detected | not detectable | –

More lines, main results first:

Row | FI0.5 [1, 5] [µM] | Sequence | IFN-γ response (ELISPOT spots) on stimulation with the immunizing peptide [2] | CTL lysis of peptide-pulsed target cells [3] | further results
11 | 0.3 | KIFEEIESV [POTE 553-3F, modified POTE 553 peptide, phenylalanine at position 3] | – | – | –
12 | 0.1 | KLLEEIESV [POTE 553-2L, modified POTE 553 peptide, leucine at position 2] | induced some extent of IFN-γ responses only after stimulation with the same peptide | did not lyse target cells pulsed with POTE 553-2L | IFN-γ ELISPOT cross-reactive response to the wild type peptide ([2]; AAD mice immunized s.c. with the enhanced peptide): no cross-reactive response to wild type peptide was detected
13 | 4 | KLMAKAALL [POTE 252-7A, modified POTE 252 peptide, alanine at position 7] | – | – | –
14 | 0.3 | LLLEQNVDV [POTE 323-331, unmodified 9-mer peptide, residues 323-331 of human POTE] | induced some IFN-γ responses after stimulation with the identical peptide | did not lyse target cells pulsed with POTE 323 | binding affinity for the HLA-A2 molecule (in words) [1]: intermediate binders; also recorded: strongest binding affinity; FI0.5 [1, 4]: ~0.8 µM; IFN-γ response over background level ([2]; AAD mice, ELISPOT): less than 2 fold

Source: US9394352B2, “Immunogenic POTE peptides and methods of use” (The United States of America, as represented by the …, priority 2010, dated 2016)
